{"source": "paper PMC8266384", "about": "“A two-site flexible clamp mechanism for RET-GDNF-GFRα1 assembly reveals both conformational adaptation and strict geometric spacing” (Structure(London, England:1993), 2021)", "molecules": {"B1": {"name": "zGDNF^mat.-zGFRα1a^D1-3 complex (2:2), wild type, Q98TT9;Q98TU0 N323A (protein)", "chain 1": "MFIAAIYIILPLLDVLLSAEESYFSSSNRLDCVKANELCLKEPGCSSKYRTMRQCVAGRESNFSMATGMEAKDECRLVLDALKQSPLYNCRCKRGMKKEKNCLRIYWGIYQHLQGNDLLEDSPYEPVNSRLSDIFRLAPIYSGEPALAKENNCLNAAKACNLNDTCKKYRSAYISPCTSRVSTAEVCNKRKCHKALRQFFDKVPPKHSYGMLYCSCPLGDQSACSERRRQTIVPACSYEDKERPNCLTLQVSCKTNYICRSRLADFFTNCQPEPLSLSGCLKENYADCLLSYSGLIGTVMTPNYLRSPKISVSPFCDCSSSGASKEECDRFTEFFTDNACLRNAIQAFGNGTD", "chain 2": "VKGQGRGCLLKEIHLNVTDLDLGYRTKEELIFRYCSGPCHDAETNYDKILNNLTHNKKLDKDTPSRTCCRPIAFDDDISFLDDSLEYHTLKKHSAKKCACV"}, "B2": {"name": "zGDNF^mat.-zGFRα1a^D1-3 complex (2:2), wild type (complex)", "chain 1": "B1 chain 1 with A323N", "chain 2": "B1 chain 2"}, "B3": {"name": "zebrafish GDNF, N-terminally truncated (zGDNF^mat.) (ligand, UniProt Q98TU0 135-235, looked up)", "chain": "B1 chain 2", "notes": "One protomer; it stands as a dimer in the complexes; also called GDNF1; not shown: Protein A, C-terminal, cleaved"}, "B4": {"name": "zGDNF^mat._(Y158A)-zGFRα1a^D1−3WT complex (complex)", "chain 1": "B1 chain 1 with A323N", "chain 2": "B1 chain 2 with Y24A"}, "B5": {"name": "zGDNF^mat.-zGFRα1a^D1-3 complex (2:2), wild type, Q98TT9;Q98TU0 L156A (protein)", "chain 1": "B1 chain 1 with A323N", "chain 2": "B1 chain 2 with L22A"}, "B6": {"name": "zGDNFwt-zGFR1α1a^D1−3_(N323A,E326A,E327A) complex (complex)", "chain 1": "B1 chain 1 with E326A, E327A", "chain 2": "B1 chain 2"}, "B7": {"name": "zGDNF^mat.WT-zGFR1α1a^D1−3_(E326A,E327A) complex (complex)", "chain 1": "B1 chain 1 with A323N, E326A, E327A", "chain 2": "B1 chain 2"}, "B8": {"name": "zebrafish RET extracellular domain (zRET^ECD) (domain or fragment)", "chain": "GLYFPQRLYTENIYVGQQQGSPLLQVISMREFPTERPYFFLCSHRDAFTSWFHIDEASGVLYLNKTLEWSDFSSLRSGSVRSPKDLTLKVGVSSTPPMKVMCTILPTVEVKLSFINDTAPSCGQVELSTLCFPEKISNPHITENREPGALRQLRRFTHMSICPNYTISYGVVAGSSVPFAVDDSTSELVVTAQVDREEKEVYHLDIVCMVRTERNLEEVFRSLHVNIYDEDDNSPYVNGTDTEDVLVEFDRSEGTVFGTLFVYDRDTTPVYPTNQVQNKLVGTLMTNDSWIKNNFAIEHKFREEKAIFGNVRGTVHEYKLKLSQNLSVTEQRSFLLGYLVNDTTFPGPEGTVLLHFNVTVLPVPIRFSNVTYSFTVSQKATTYSQIGKVCVENCQKFKGIDVTYQLEIVDRNITAEAQSCYWAVSLAQNPNDNTGVLYVNDTKVLRRPECQELEYVVIAQEQQNKLQAKTQLTVSFQGEADSLRTDEPRFPACAEKRQRGDCEATRGLGAPTGRCQWRQGRDKGISKRYSTCSPNLGTCPDGYCDAIESKNISICPQDCSSEAIIGGYERDLYGIKAGHGTCYCFEGKCFCERDEPEDDICNDMC", "modifications": "NHS-RED 2nd generation dye (amine reactive) in the MST only"}}, "key": {"[1]": {"molecular_target": "zRET^ECD-zGDNF^mat.-zGFRα1a^D1-3 ternary complex (zRGα1a), 2:2:2 (zebrafish) (UniProt A8E7C6)", "assay": "cryo-EM micrographs, particle-pair analysis and 2D class averages; non-crosslinked zRGα1a at 0.1 mg/ml on Quantifoil grids (dataset 3); complex with complex in linear arrays"}, "[2]": {"molecular_target": "T1, zebrafish RET extracellular domain (zRET^ECD), A8E7C6", "T1 chain": "B8 chain", "assay": "MST", "details": "chain shown with the change"}, "[3]": {"molecular_target": "zebrafish RET extracellular domain (zRET^ECD) (zebrafish) (UniProt A8E7C6)", "assay": "MST; zRET^ECD labelled with NHS-RED (50 nM fluorophore) held constant, unlabelled zGFRα1^D1-3-zGDNF^mat. (WT and mutants) in 1:1 serial dilution; 25°C; 20 mM HEPES pH 7.0, 150 mM NaCl, 1 mM CaCl2, 0.05 % Tween-20; quadratic fit, at least three repeats"}, "[4]": {"molecular_target": "zRET^ECD with the CLD3-β2-β3 loop truncated to AAG (zRET^ECD_(P291-Q296:AAG)) (zebrafish) (UniProt A8E7C6)", "assay": "MST; zRET^ECD labelled with NHS-RED (50 nM fluorophore) held constant, unlabelled zGFRα1^D1-3-zGDNF^mat. (WT and mutants) in 1:1 serial dilution; 25°C; 20 mM HEPES pH 7.0, 150 mM NaCl, 1 mM CaCl2, 0.05 % Tween-20; quadratic fit, at least three repeats"}, "[5]": {"molecular_target": "the molecule itself", "assay": "cryo-EM structure; reconstituted zRGα1a complex crosslinked by GraFix (glutaraldehyde), 0.1 mg/ml; 20 mM Tris pH 7.0, 150 mM NaCl, 1 mM CaCl2; untilted and 30° tilted datasets"}, "[6]": {"molecular_target": "T2, zGDNF^mat._(Y158A)-zGFRα1a^D1−3WT complex (zebrafish, UniProt Q98TT9 1-353; Q98TU0 135-235, Y158A)", "T2 sequence 1": "B1 chain 1 with A323N", "T2 sequence 2": "B1 chain 2 with Y24A", "assay": "MST"}}, "note": "Residue numbers refer to the chain shown, from its start. In names and notes the source's numbering stands. Several values for one entry are separate records, joined by “and”; a condition that tells them apart may be missing. Equal values may be shown once."}
{"molecule": "zRET^ECD-zGDNF^mat.-zGFRα1a^D1-3 ternary complex (zRGα1a), 2:2:2 (from UniProt A8E7C6 1-626; Q98TT9 1-353; Q98TU0 135-235)", "values": [{"measurement": "stoichiometry N", "setting": "[1]", "value": "2 and 4"}]}
{"molecule": "B1", "values": [{"measurement": "Kd", "setting": "[2]; fluorescently labeled zRETECD, minimum of n = 3 repeats", "value": 88, "unit": "nM"}]}
{"molecule": "B2", "values": [{"measurement": "Kd", "setting": "[3]", "value": 90, "unit": "nM"}, {"measurement": "Kd", "setting": "[4]", "value": 18, "unit": "nM"}]}
{"molecule": "B3", "values": [{"measurement": "stoichiometry N", "setting": "[5]", "value": 2}]}
{"molecule": "B4", "values": [{"measurement": "fold decrease in affinity against the wild type", "setting": "[3]", "value": 2, "unit": "fold"}]}
{"molecule": "B5", "values": [{"measurement": "Kd", "setting": "[2]", "value": 88, "unit": "nM"}]}
{"molecule": "B6", "values": [{"measurement": "Kd", "setting": "[3]", "value": 2350, "unit": "nM"}]}
{"molecule": "B7", "values": [{"measurement": "Kd", "setting": "[3]", "value": 170, "unit": "nM"}]}
{"molecule": "B8", "values": [{"measurement": "Kd", "setting": "[6]", "value": 173, "unit": "nM"}]}
